Drawing on PMC6888645, this text covers stoichiometry N for four substances.

The term stoichiometry N denotes a count of units in the complex or per binding partner.

The target of assay [1] is DD-N-CAP1, human CAP1 helical folded domain with the coiled coil (a.a. 1-29) replaced by the dimerization domain 2L4HC2_23 (human). Description: native MS; 100-300 pmole protein (as monomer), online buffer exchange to 200 mM ammonium acetate pH 6.8, Orbitrap EMR, deconvolution with UniDec.
Assay [2] has the same target. Kind of assay: AUC; sedimentation velocity (SV-AUC), 50 µM protein, 20 °C, 50,000 rpm, absorbance at 280 nm, 20 mM Tris-HCl pH 8.0, SEDFIT c(S) model; buffer (Tris-HCl vs PBS) and salt did not affect the oligomerization state.
The target of assay [3] is DD-N-CAP2, human CAP2 helical folded domain with the coiled coil (a.a. 1-29) replaced by the dimerization domain 2L4HC2_23 (human). Description: native MS; 100-300 pmole protein (as monomer), online buffer exchange to 200 mM ammonium acetate pH 6.8, Orbitrap EMR, deconvolution with UniDec.
For assay [4] the target is unchanged. Description: AUC; sedimentation velocity (SV-AUC), 50 µM protein, 20 °C, 50,000 rpm, absorbance at 280 nm, 20 mM Tris-HCl pH 8.0, SEDFIT c(S) model; buffer (Tris-HCl vs PBS) and salt did not affect the oligomerization state.
Assay [5] addresses TD-N-CAP1, human CAP1 helical folded domain with the coiled coil (a.a. 1-29) replaced by the trimerization domain 2L6HC3_6 (human). Description: native MS; 100-300 pmole protein (as monomer), online buffer exchange to 200 mM ammonium acetate pH 6.8, Orbitrap EMR, deconvolution with UniDec.
Assay [6] shares this target. Description: AUC; sedimentation velocity (SV-AUC), 50 µM protein, 20 °C, 50,000 rpm, absorbance at 280 nm, 20 mM Tris-HCl pH 8.0, SEDFIT c(S) model; buffer (Tris-HCl vs PBS) and salt did not affect the oligomerization state.
Assay [7] has as its target TD-N-CAP2, human CAP2 helical folded domain with the coiled coil (a.a. 1-29) replaced by the trimerization domain 2L6HC3_6 (human). Description: native MS; 100-300 pmole protein (as monomer), online buffer exchange to 200 mM ammonium acetate pH 6.8, Orbitrap EMR, deconvolution with UniDec.
For assay [8] the target is unchanged. Kind of assay: AUC; sedimentation velocity (SV-AUC), 50 µM protein, 20 °C, 50,000 rpm, absorbance at 280 nm, 20 mM Tris-HCl pH 8.0, SEDFIT c(S) model; buffer (Tris-HCl vs PBS) and salt did not affect the oligomerization state.

Regarding “DD-N-CAP1, human CAP1 helical folded domain with the coiled coil (a.a. 1-29) replaced by the dimerization domain 2L4HC2_23”, the stoichiometry N in assay [1] and in assay [2] was 2 each time.

Take “DD-N-CAP2, human CAP2 helical folded domain with the coiled coil (a.a. 1-29) replaced by the dimerization domain 2L4HC2_23”: the stoichiometry N in assay [3] and in assay [4] was 2 throughout.

In the case of “TD-N-CAP1, human CAP1 helical folded domain with the coiled coil (a.a. 1-29) replaced by the trimerization domain 2L6HC3_6”, the stoichiometry N in assay [5] and in assay [6] was 3 throughout.

On to “TD-N-CAP2, human CAP2 helical folded domain with the coiled coil (a.a. 1-29) replaced by the trimerization domain 2L6HC3_6”, for which the stoichiometry N in assay [7] and in assay [8] was 3 throughout.
